Measured values taken from the supplement of paper PMC10567573.

B1: CDC25B (parent)
chain: FVDILESDLKDDDAVPPGMESLIS
B2: PKD2L1 (parent)
chain: YSGGGYYLDLPGSRQGSAEALRAL

Variants of: B1
Test: protein stability index of a GFP-peptide fusion (GPS, HEK-293T) (PSI 1-6); higher = more stable
Conditions: c terminus: a fixed tail appended
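Further: lentivirally expressed fusions sorted by FACS into six bins by GFP to DsRed ratio, PSI derived from sequencing read proportions per bin multiplied by bin number.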

Row | Variant | protein stability index
1 | I23W | 2.25
2 | I23Q | 3.77
3 | I23G | 3.03
4 | I23C | 2.93
5 | I23V | 2.65
6 | I23E | 3.57
7 | I23H | 3.56
8 | I23P | 2.96
9 | I23T | 2.91
10 | I23F | 2.48
11 | I23M | 3.02
12 | I23D | 3.7
13 | I23S | 3.3
14 | I23K | 2.83
15 | I23N | 2.6
16 | I23A | 3.54
17 | I23Y | 2.69
18 | I23L | 3.07
19 | I23R | 2.77
20 | G18N | 3.23
21 | G18K | 2.8
22 | G18F | 2.26
23 | G18D | 3.29
24 | G18R | 2.87

Row | Variant | protein stability index
25 | G18A | 3.03
26 | G18E | 3.39
27 | G18L | 3.51
28 | G18P | 3.18
29 | G18I | 2.32
30 | G18H | 3.11
31 | G18Y | 2.65
32 | G18Q | 2.86
33 | G18C | 2.6
34 | G18T | 3.28
35 | G18W | 2.31
36 | G18V | 2.87
37 | G18S | 3.06
38 | G18M | 2.6
39 | P17W | 1.81
40 | P17M | 2.69
41 | P17Q | 3.2
42 | P17S | 2.72
43 | P17T | 3.51
44 | P17V | 2.27
45 | P17R | 2.19
46 | P17Y | 2.71
47 | P17N | 2.66
48 | S24H | 2.94

Row | Variant | protein stability index
49 | S24F | 2.01
50 | S24G | 3.02
51 | S24V | 2.41
52 | S24L | 2.18
53 | S24C | 2.66
54 | S24W | 1.72
55 | S24M | 2.52
56 | S24D | 3.45
57 | S24E | 3.27
58 | S24R | 2.96
59 | S24I | 2.69
60 | S24N | 2.85
61 | S24T | 3.02
62 | S24K | 2.82
63 | S24Y | 2.47
64 | S24Q | 3.9
65 | S24A | 3.1
66 | S24P | 2.57
67 | L22D | 3.67
68 | L22T | 3.65
69 | L22P | 3.36
70 | L22A | 3.37
71 | L22Y | 2.47
72 | L22N | 2.71

Row | Variant | protein stability index
73 | L22H | 3.52
74 | L22I | 2.77
75 | L22C | 3.15
76 | L22Q | 3.32
77 | L22F | 2.63
78 | L22K | 2.99
79 | L22G | 3.21
80 | L22E | 3.92
81 | L22M | 3.1
82 | L22V | 3.19
83 | L22W | 2.43
84 | L22S | 3.66
85 | L22R | 2.66
86 | S21A | 2.84
87 | S21V | 2.93
88 | S21I | 3.24
89 | S21K | 2.68
90 | S21D | 3.15
91 | S21N | 2.81
92 | S21H | 2.67
93 | S21F | 2.5
94 | S21G | 2.61
95 | S21T | 2.76
96 | S21Y | 2.35

Row | Variant | protein stability index
97 | S21R | 2.86
98 | S21L | 3.43
99 | S21E | 3.05
100 | S21P | 3.02
101 | S21C | 2.93
102 | S21Q | 2.83
103 | S21M | 2.96
104 | S21W | 2.22
105 | M19I | 2.85
106 | M19Q | 3.6
107 | M19E | 3.37
108 | M19N | 3.4
109 | M19G | 3.06
110 | M19T | 3.09
111 | M19H | 2.89
112 | M19S | 3.45
113 | M19A | 3.22
114 | M19W | 2.67
115 | M19L | 3.08
116 | M19Y | 2.32
117 | M19D | 3.48
118 | M19V | 3.08
119 | M19F | 2.83
120 | M19K | 3.02

Row | Variant | protein stability index
121 | M19C | 2.91
122 | M19R | 2.55
123 | M19P | 3.54
124 | E20F | 1.79
125 | E20H | 2.69
126 | E20D | 2.6
127 | E20S | 2.43
128 | E20I | 2.31
129 | E20T | 2.51
130 | E20Q | 3.08
131 | E20A | 2.77
132 | E20R | 2.71
133 | E20C | 2.43
134 | E20L | 2.2
135 | E20G | 2.48
136 | E20W | 1.78
137 | E20M | 2.16
138 | E20Y | 2.12
139 | E20V | 2.66
140 | E20P | 2.44
141 | E20K | 2.74
142 | E20N | 2.76

Variants of: B2
Test: as above
Conditions: c terminus: a fixed tail appended

Row | Variant | protein stability index
143 | Y1L | 3.1
144 | Y1E | 3.75
145 | Y1R | 3.13
146 | Y1P | 3.49
147 | Y1C | 2.29
148 | Y1V | 2.98
149 | Y1Q | 3.75
150 | Y1M | 2.99
151 | Y1S | 3.48
152 | Y1G | 3.66
153 | Y1D | 4.08
154 | Y1N | 3.58
155 | Y1F | 2.68
156 | Y1I | 2.72
157 | Y1T | 3.58
158 | Y1H | 3.5
159 | Y1W | 2.94
160 | Y1A | 3.15
161 | Y1K | 3.16
162 | Y7P | 2.96
163 | Y7S | 3.21
164 | Y7M | 1.61
165 | Y7R | 2.06
166 | Y7W | 1.91

Row | Variant | protein stability index
167 | Y7Q | 2.4
168 | Y7H | 2.26
169 | Y7G | 2.24
170 | Y7K | 2.75
171 | Y7E | 3.37
172 | Y7L | 1.66
173 | Y7D | 3.25
174 | Y7T | 2.71
175 | Y7C | 1.93
176 | Y7A | 2.17
177 | Y7I | 1.39
178 | Y7F | 1.56
179 | Y7V | 2.21
180 | Y7N | 2.59
181 | L10C | 2.31
182 | L10D | 2.02
183 | L10N | 1.6
184 | L10M | 1.66
185 | L10Y | 1.81
186 | L10A | 2.27
187 | L10I | 2.33
188 | L10V | 2.17
189 | L10H | 1.58
190 | L10K | 1.73

Row | Variant | protein stability index
191 | L10T | 2.35
192 | L10E | 2.69
193 | L10Q | 1.27
194 | L10F | 2.09
195 | L10G | 1.56
196 | L10P | 1.9
197 | L10W | 1.14
198 | L10R | 2.97
199 | L10S | 1.46
200 | G4C | 1.95
201 | G4E | 1.8
202 | G4K | 2.37
203 | G4S | 2.08
204 | G4F | 2.49
205 | G4T | 2.53
206 | G4L | 2.15
207 | G4N | 1.67
208 | G4A | 1.56
209 | G4Y | 1.65
210 | G4H | 2.45
211 | G4R | 2.48
212 | G4V | 2.22
213 | G4D | 2.86
214 | G4M | 2.35

Row | Variant | protein stability index
215 | G4W | 2.44
216 | G4P | 2.03
217 | G4I | 1.78
218 | G4Q | 2.23
219 | D9F | 3.62
220 | D9W | 2.87
221 | D9T | 3.34
222 | D9R | 2
223 | D9K | 2.59
224 | D9E | 2.01
225 | D9Q | 1.24
226 | D9H | 1.95
227 | D9G | 3.74
228 | D9I | 3.81
229 | D9M | 3.33
230 | D9Y | 4.13
231 | D9L | 4.93
232 | D9S | 1.83
233 | D9N | 2.46
234 | D9A | 4.81
235 | D9P | 1.66
236 | G5T | 1.96
237 | G5I | 1.33
238 | G5S | 1.83

Row | Variant | protein stability index
239 | G5V | 2.1
240 | G5L | 1.6
241 | G5K | 2.65
242 | G5A | 1.14
243 | G5N | 1.76
244 | G5H | 2.28
245 | G5C | 1.25
246 | G5P | 2.41
247 | G5Y | 1.71
248 | G5W | 3.35
249 | G5M | 2.68
250 | G5E | 2.06
251 | G5Q | 1.39
252 | G5F | 2.17
253 | G5R | 2.67
254 | G5D | 2.28
255 | L8S | 1.37
256 | L8K | 1.42
257 | L8F | 2.66
258 | L8P | 1.99
259 | L8V | 2.45
260 | L8A | 2.12
261 | L8I | 2.77
262 | L8D | 1.99

Row | Variant | protein stability index
263 | L8Y | 2.03
264 | L8H | 4.24
265 | L8N | 1.73
266 | L8G | 1.67
267 | L8M | 3.21
268 | L8R | 2.08
269 | L8C | 1.69
270 | L8W | 2.72
271 | L8T | 3.55
272 | L8E | 2.9
273 | L8Q | 2.26
274 | G3A | 1.58
275 | G3S | 1.73
276 | G3V | 2.21
277 | G3F | 1.45
278 | G3R | 2.47
279 | G3K | 2.37
280 | G3P | 2.31
281 | G3C | 2.41
282 | G3E | 2.06
283 | G3Y | 1.7
284 | G3T | 1.93
285 | G3I | 2.27
286 | G3D | 2.5

Row | Variant | protein stability index
287 | G3Q | 1.52
288 | G3N | 1.52
289 | G3W | 2.09
290 | G3L | 2.87
291 | G3M | 2.12
292 | G3H | 2.02
293 | S2L | 1.4
294 | S2Y | 2.19
295 | S2V | 3.97
296 | S2M | 1.92
297 | S2D | 2.45
298 | S2P | 3.27
299 | S2Q | 2.3
300 | S2E | 3
301 | S2W | 2.13
302 | S2F | 1.93
303 | S2R | 2.51
304 | S2I | 2.34
305 | S2G | 1.45
306 | S2H | 2.88
307 | S2N | 1.84
308 | S2K | 2.22
309 | S2T | 2.59
310 | P11C | 1.82

Row | Variant | protein stability index
311 | P11D | 1.21
312 | P11E | 1.29
313 | P11F | 2.12
314 | P11G | 3.43
315 | P11A | 1.89
316 | Y6V | 2.24
317 | Y6G | 1.84
318 | Y6L | 1.59
319 | Y6D | 2.57
320 | Y6T | 2.75
321 | Y6Q | 2.83
322 | Y6A | 2.27
323 | Y6E | 3.37
324 | Y6R | 2.64
325 | Y6P | 2.42
326 | Y6K | 2.66
327 | Y6H | 2.16
328 | Y6C | 2.75
329 | Y6S | 3.28
330 | Y6N | 2.83
331 | Y6I | 1.79
332 | Y6F | 2.25
333 | Y6W | 5.5
334 | Y6M | 2.16
